Assay results reported in publication PMC5454376, “Molecular mechanism of Gαi activation by non-GPCR proteins with a Gα-Binding and Activating motif” (Nature Communications, 2017).

B1: GAIP: GAIP (also known as RGS19), a GAP used as control (protein)
chain: MPTPHEAEKQITGPEEADRPPSMSSHDTASPAAPSRNPCCLCWCCCCSCSWNQERRRAWQASRESKLQPLPSCEVCATPSPEEVQSWAQSFDKLMHSPAGRSVFRAFLRTEYSEENMLFWLACEELKAEANQHVVDEKARLIYEDYVSILSPKEVSLDSRVREGINKKMQEPSAHTFDDAQLQIYTLMHRDSYPRFLSSPTYRALLLQGPSQSSSEA
modifications: left off: GST, end not stated, kept
notes: GAIP (also known as RGS19), a GAP used as control
B2: Ric-8A: non-receptor GEF used as control (protein)
chain: TGEEDAVTEALRSFNREHSQSFTFDDAQQEDRKRLAKLLVSVLEQGLSPKHRVTWLQTIRILSRDRSCLDSFASRQSLHALACYADIAISEEPIPQPPDMDVLLESLKCLCNLVLSSPTAQMLAAEARLVVRLAERVGLYRKRSYPHEVQFFDLRLLFLLTALRTDVRQQLFQELHGVRLLTDALELTLGVAPKENPLVILPAQETERAMEILKVLFNITYDSVKREVDEEDAALYRYLGTLLRHCVMADAAGDRTEEFHGHTVNLLGNLPLKCLDVLLALELHEGSLEFMGVNMDVINALLAFLEKRLHQTHRLKECVAPVLSVLTECARMHRPARKFLKAQVLPPLRDVRTRPEVGDLLRNKLVRLMTHLDTDVKRVAAEFLFVLCSESVPRFIKYTGYGNAAGLLAARGLMAGGRPEGQYSEDEDTDTEEYREAKASINPVTGRVEEKPPNPMEGMTEEQKEHEAMKLVNMFDKLSR
modifications: left off: GST, end not stated, kept
notes: non-receptor GEF used as control
B3: CALNUC: GBA motif protein with calcium-binding EF hands (protein, UniProt Q02818 27-461, looked up)
Nucleobindin-1: VPLERGAPNKEETPATESPDTGLYYHRYLQEVIDVLETDGHFREKLQAANAEDIKSGKLSRELDFVSHHVRTKLDELKRQEVSRLRMLLKAKMDAEQDPNVQVDHLNLLKQFEHLDPQNQHTFEARDLELLIQTATRDLAQYDAAHHEEFKRYEMLKEHERRRYLESLGEEQRKEAERKLEEQQRRHREHPKVNVPGSQAQLKEVWEELDGLDPNRFNPKTFFILHDINSDGVLDEQELEALFTKELEKVYDPKNEEDDMREMEEERLRMREHVMKNVDTNQDRLVTLEEFLASTQRKEFGDTGEGWETVEMHPAYTEEELRRFEEELAAREAELNAKAQRLSQETEALGRSQGRLEAQKRELQQAVLHMEQRKQQQQQQQGHKAPAAHPEGQLKFHPDTDDVPVPAPAGDQKEVDTSEKKLLERLPEVEVPQHL

Key:
Gαi3-[GDP] = assay: Pull-down, GDP-loaded Gαi3; type: binding, rat; settings: GST fusion on glutathione-agarose, 100 μM GDP, 4 °C, pH 8.1, immunoblot
Protocol: (§1) Preparation of nucleotide-free Gαi3 and pull-down assay
(§2) His-tagged rat Gαi3 cloned in a pET28b vector was purified from BL21(DE3) bacteria (Life Technologies) after isopropyl-[beta]-D-thiogalactoside (IPTG) induction. Nucleotide-free Gαi3 was prepared by promoting nucleotide release with high concentrations of ammonium sulfate in the presence of glycerol. For this, His-Gαi3 was run through a Superdex S75 column equilibrated with 20 mM Tris-HCl (pH 7.4), 20 mM NaCl, 1 mM MgCl2, 1 mM dithiothreitol (DTT), 10 μM GDP and 5% (v/v) glycerol. A volume of 200 μl of His-Gαi3 at ∼5 μM were loaded on a Sephadex G-25 column (10 ml) equilibrated with 1 M ammonium sulfate, 20% (v:v) glycerol (pH 6) and the protein eluted at room temperature with the same buffer. Protein-containing fractions were pooled (∼400–600 μl) and incubated overnight at 4 °C. […] After transfer to polyvinylidene difluoride (PVDF) membranes, GST-fused proteins were visualized by Ponceau S staining and His-Gαi3 detected by immunoblotting with mouse anti-polyHis-Tag primary antibodies (1:2,500, Sigma, H1029) and goat anti-mouse IRDye 800F(ab′)2 secondary antibodies (1:10,000, Li-Cor) using an Odyssey Infrared Imaging System (Li-Cor Biosciences). […]

Gαi3-[GTP] = assay: Pull-down, GDP/AlF4^−-loaded Gαi3; type: binding, rat; settings: GST fusion on glutathione-agarose, 4 °C, pH 8.1, immunoblot
Protocol: as §1, §2

Gαi3 N269D = assay: Co-immunoprecipitation in HEK293T cells, Gαi3 N269D versus WT; type: binding; settings: HEK293T lysates, FLAG-tagged Gαi3 N269D vs WT; GST-Ric-8A 1 μg added
Protocol: HEK293T cells (American Type Culture Collection) were grown at 37 °C in DMEM supplemented with 10% FBS, 100 U ml^−1 penicillin, 100 μg ml^−1 streptomycin, 1% L-glutamine and 5% CO2. DNA plasmids encoding for C-terminally 3xFLAG-tagged Gαi3 (ref. [25]) or an empty plasmid (p3xFLAG-CMV-14) were transfected using the calcium phosphate method in 10 cm dishes. The DNA amount for the Gαi3 N269D plasmid was threefold (12 μg) of that for Gαi3 WT (4 μg) to equalize their expression levels. Cells were collected 48 h after transfection by gently scrapping in PBS, centrifuged and resuspended in 1 ml of lysis buffer (20 mM HEPES (pH 7.2), 5 mM Mg(CH3COO)2, 125 mM K(CH3COO), 0.4% (v:v) Triton X-100, 1 mM DTT, 10 mM β-glycerophosphate and 0.5 mM Na3VO4 supplemented with a protease inhibitor cocktail (Sigma; catalogue #S8830)) and cleared (14,000g for 10 min) before use. Lysates were supplemented with 1 μg of purified GST-Ric-8A (12–491)[22] and 2 μg of mouse anti-FLAG antibody (Sigma F1804), and incubated for 4 h at 4 °C with rotation. BSA-blocked Protein G agarose beads (Thermo-Scientific) were added and tubes incubated for additional 90 min at 4 °C. Beads were washed four times (4.3 mM Na2HPO4, 1.4 mM KH2PO4, pH 7.4, 137 mM NaCl, 2.7 mM KCl, 0.1% (v/v) Tween 20, 10 mm MgCl2, 5 mm EDTA and 1 mm DTT) and immunoprecipitated proteins eluted by boiling in Laemmli sample buffer. […]

Gα = settings: cited from earlier work
Source text: GBA proteins also differ from the non-receptor GEF Ric-8A. Although both Ric-8A and GBA proteins activate monomeric Gα instead of Gαβγ trimers, removal of the C terminus of Gα only abrogates Ric-8A action. This indicates a different mode of G-protein binding for Ric-8A that resembles how GPCR bind. […] We are confident about the similarity on which the model was built because of several lines of evidence presented in this manuscript and in previously published work. […] Second, sequence similarity with the KB-752 and rudimentary modeling allowed us to identify residues in the GBA motif of GIV ...

Gαi3-[ ] = assay: Pull-down, nucleotide-free Gαi3; type: binding, rat; settings: GST fusion on glutathione-agarose (GIV 1,671–1,755; Ric-8A 12–491), 4 °C, pH 8.1, immunoblot
Protocol: as §1, §2

Gαi3 = settings: GBA motif of CALNUC; cited from earlier work
Source text: The disordered nature of GIV-CT is intrinsic and not a consequence of the truncation of the protein at residue 1,660 since disorder is predicted for the C-terminal 330 residues of the GIV sequence, and larger fragments of GIV can also recapitulate G-protein binding and/or activation in a GBA motif-dependent manner. The ...

Molecule	binding to Gαi3-[GDP] (Gαi3-[GDP])	binding to Gαi3-[GTP] (Gαi3-[GTP])	co-immunoprecipitation with nucleotide-free-mimicking mutant compared with WT (Gαi3 N269D)	effect of removal of the C terminus of Gα (Gα)	binding to Gαi3-[ ] (Gαi3-[ ])	Gαi3 binding, calcium dependence (Gαi3)
B1	not to Gαi3-[GDP]	binds exclusively	–	–	–	–
B2	weaker binding	dissociation	binds more	abrogates	binds preferentially	–
B3	–	–	–	–	–	only when the protein is not calcium-bound
